Source: patent US20240252474A1, “METHODS AND COMPOSITIONS COMPRISING A CARDIO-TOLERATED HDAC INHIBITOR” (HUYABIO International, LLC, priority 2023, published 2024)

Assay: Phase 1b safety and tolerability of HBI-8000 combined with nivolumab (DLTs, TEAEs)
Assay type: in vivo
Method: The present example, was a Phase Ib/2 open-label dose finding study for HBI-8000 (also referred to in the art as “chidamide” or “tucidinostat” and also referred to herein as a compound of formula I) in combination with nivolumab in patients with advanced solid tumors, including melanoma, RCC (renal cell carcinoma), and NSCLC (non-small cell lung cancer). This study was conducted in accordance with Good Clinical Practice guidelines and the Declaration of Helsinki and with assurance/approval from the US Department of Health and Human Services; the protocol was approved by the institutional review boards or ethics committees of all participating sites. All patients provided written informed consent to participate before enrollment. […]
HBI-8000 at three dose levels (20 mg, 30 mg, and 40 mg) given orally twice a week (BIW) were evaluated. Doses were taken approximate 30 minutes after a meal. The starting dose (20 mg) was selected based on pharmacokinetic profiles established for monotherapy in Japanese patients with T-cell lymphoma.
The decision to escalate the dose was based on the conventional 3+3 design and observed incidences of dose-limiting toxicities (DLTs). Each treatment cycle was defined as 28 days. […] Subjects experiencing DLT within the first two weeks after having received 100% of assigned dose of HBI-8000 are also evaluable for DLT. Unacceptable toxicities were defined as grade 3 or higher non-hematologic and hematologic toxicities with clinical complications. Unacceptable toxicities observed over the first 28 days following HBI-8000 administration were considered as DLTs. […] HBI-8000 administration continued until disease progression or unacceptable toxicity was observed. The efficacy of the combination was further evaluated in an expanded cohort of selected patient populations at RP2D based on an objective response rate according to Response Evaluation Criteria in Solid Tumors (RECIST) version 1.1 criteria, progression-free survival, and duration of responses.
Safety evaluations included physical examinations, vital signs, ECGs, ECOG performance status, and laboratory tests.
Statistical analyses of safety, tolerability, and anti-tumor activity were primarily descriptive in nature. Toxicities were tabulated by type and grade. The safety population included all patients who received ≥1 dose of HBI-8000 and nivolumab. Continuous variables were summarized using descriptive statistics and categorical variables were summarized with number and percentage at each category. Pharmacokinetic parameters were derived using noncompartmental methods with Phoenix® WinNonlin® Version 6.4 (Certara, L. P., Princeton, NJ, USA).

[1] = 20 mg HBI-8000 BIW + nivolumab, N = 3
[2] = 30 mg HBI-8000 BIW + nivolumab, N = 7
[3] = 40 mg HBI-8000 BIW + nivolumab, N = 7

## Nivolumab: fully human monoclonal antibody directed against PD-1 (marketed as OPDIVO) [reference compound]
[1]
  Diarrhoea, Related Nivo, Any G: 1 (33) n (%)
  SAE related to Nivolumab alone, number of subjects: 1 n
  TEAE related to Nivolumab alone, number of subjects: 2 n
  TEAE resulting in discontinuation of Nivo alone, number of subjects: 1 n
  Weight decreased, Related Nivo, Any G: 1 (33) n (%)
[2]
  Back pain, Related Nivo, Any G: 2 (29) n (%)
  Dyspnoea, Related Nivo, Any G: 1 (14) n (%)
  Fall, Related Nivo, Any G: 1 (14) n (%)
  Hypoxia, Related Nivo, Any G: 1 (14) n (%)
  Lipase increased, Related Nivo, Any G: 1 (14) n (%)
  SAE related to Nivolumab alone, number of subjects: 2 n
  TEAE related to Nivolumab alone, number of subjects: 6 n
  TEAE resulting in discontinuation of Nivo alone, number of subjects: 4 n
[3]
  Diarrhoea, Related Nivo, Any G: 1 (14) n (%)
  SAE related to Nivolumab alone, number of subjects: 1 n
  TEAE related to Nivolumab alone, number of subjects: 2 n
  TEAE resulting in discontinuation of Nivo alone, number of subjects: 2 n
Total, all dose levels, N = 17
  SAE related to Nivolumab alone, number of subjects: 4 n
  TEAE related to Nivolumab alone, number of subjects: 10 n
  TEAE resulting in discontinuation of Nivo alone, number of subjects: 7 n
